Measurements as given in patent publication US20230105029A1.
Several values for one entry are separate records, joined by “and”; a condition that tells them apart may be missing. Identical values can stand only once. Like-named read-outs stand apart in the source and are kept apart here.

What was measured:
[1] = target: human IL4Rα expressed on HEK293T-IL4Rα-STAT6-STAT6LUC-LB2 cells (human) (UniProt P24394); assay: cell-based or functional assay
[2] = target: human IL4Rα expressed on HEK293T-IL4Rα-STAT6-STAT6LUC-LB2 cells (human) (UniProt P24394); assay: cell-based or functional assay; remark: listed apart in the source
[3] = target: human IL4Rα expressed on HEK293T-IL4Rα-STAT6-STAT6LUC-LB2 cells (human) (UniProt P24394); assay: cell-based or functional assay; remark: listed apart in the source
[4] = target: recombinant human IL4Rα-his protein (in house made) (human) (UniProt P24394); assay: capture ELISA, biotin-IL4Rα-his
[5] = target: human IL4Rα expressed on 293F-IL4Rα cells (human) (UniProt P24394); assay: flow cytometry, 293F-IL4Rα cells
[6] = target: human IL4Rα expressed on 293F-IL4Rα cells (human) (UniProt P24394); assay: flow cytometry, 293F-IL4Rα cells; remark: listed apart in the source
[7] = target: human IL4Rα expressed on 293F-IL4Rα cells (human) (UniProt P24394); assay: flow cytometry, 293F-IL4Rα cells; remark: listed apart in the source
[8] = target: marmoset monkey IL4Rα-his protein (marmoset monkey); assay: indirect ELISA, coated cal-IL4Rα-his
[9] = target: cynomolgus monkey IL4Rα-his protein (cynomolgus monkey); assay: indirect ELISA, coated cyno IL4Rα-his
[10] = target: cynomolgus monkey IL4Rα-his protein (cynomolgus monkey); assay: indirect ELISA, coated cyno IL4Rα-his; remark: listed apart in the source
[11] = target: human IL4Rα expressed on 293F-IL4Rα cells (human) (UniProt P24394); assay: flow cytometry on 293F-IL4Rα cells
[12] = target: human IL4Rα expressed on 293F-IL4Rα cells (human) (UniProt P24394); assay: flow cytometry on 293F-IL4Rα cells; remark: listed apart in the source
[13] = target: human IL4Rα expressed on 293F-IL4Rα cells (human) (UniProt P24394); assay: flow cytometry on 293F-IL4Rα cells; remark: listed apart in the source
[14] = target: human IL4Rα expressed on 293F-IL4Rα cells (human) (UniProt P24394); assay: flow cytometry on 293F-IL4Rα cells; remark: listed apart in the source
[15] = target: human IL4Rα expressed on 293F-IL4Rα cells (human) (UniProt P24394); assay: flow cytometry on 293F-IL4Rα cells; remark: listed apart in the source
[16] = target: human IL4Rα expressed on 293F-IL4Rα cells (human) (UniProt P24394); assay: flow cytometry on 293F-IL4Rα cells; remark: listed apart in the source
[17] = target: human IL4Rα expressed on 293F-IL4Rα cells (human) (UniProt P24394); assay: flow cytometry on 293F-IL4Rα cells; remark: listed apart in the source
[18] = target: marmoset monkey IL4Rα-his protein (marmoset monkey); assay: indirect ELISA on coated cal-IL4Rα-his
[19] = target: marmoset monkey IL4Rα-his protein (marmoset monkey); assay: indirect ELISA on coated cal-IL4Rα-his; remark: listed apart in the source
[20] = target: recombinant human IL4Rα-his protein (in house made) (human) (UniProt P24394); assay: SPR (Biacore), antibody captured, IL4Rα-his flowed
[21] = target: recombinant human IL4Rα-his protein (in house made) (human) (UniProt P24394); assay: SPR (Biacore), antibody captured, IL4Rα-his flowed; remark: listed apart in the source
[22] = target: recombinant human IL4Rα-his protein (in house made) (human) (UniProt P24394); assay: SPR (Biacore), antibody captured, IL4Rα-his flowed; remark: listed apart in the source
[23] = target: recombinant human IL4Rα-his protein (in house made) (human) (UniProt P24394); assay: SPR (Biacore), antibody captured, IL4Rα-his flowed; remark: listed apart in the source
[24] = target: recombinant human IL4Rα-his protein (in house made) (human) (UniProt P24394); assay: SPR (Biacore), antibody captured, IL4Rα-his flowed; remark: listed apart in the source
[25] = target: cynomolgus monkey IL4Rα-his protein (cynomolgus monkey); assay: indirect ELISA on coated cynomolgus IL4Rα-his
[26] = target: cynomolgus monkey IL4Rα-his protein (cynomolgus monkey); assay: indirect ELISA on coated cynomolgus IL4Rα-his; remark: listed apart in the source
[27] = target: cynomolgus monkey IL4Rα-his protein (cynomolgus monkey); assay: indirect ELISA on coated cynomolgus IL4Rα-his; remark: listed apart in the source
[28] = target: human IL4Rα expressed on 293F-IL4Rα cells (human) (UniProt P24394); assay: flow cytometry, blocks biotin-IL4 binding to 293F-IL4Rα cells
[29] = target: human IL4Rα expressed on 293F-IL4Rα cells (human) (UniProt P24394); assay: as above; remark: listed apart in the source
[30] = target: recombinant human IL4Rα-his protein (in house made) (human) (UniProt P24394); assay: competitive ELISA, blocks biotin-IL4 binding to coated IL4Rα-his
[31] = target: recombinant human IL4Rα-his protein (in house made) (human) (UniProt P24394); assay: as above; remark: listed apart in the source
[32] = target: recombinant human IL4Rα-his protein (in house made) (human) (UniProt P24394); assay: as above; remark: listed apart in the source
[33] = target: human IL4Rα expressed on 293F-IL4Rα cells (human) (UniProt P24394); assay: flow cytometry on 293F-IL4Rα cells, blocked ligand biotin human IL4
[34] = target: human IL4Rα expressed on 293F-IL4Rα cells (human) (UniProt P24394); assay: as above; remark: listed apart in the source
[35] = target: human IL4Rα expressed on 293F-IL4Rα cells (human) (UniProt P24394); assay: as above; remark: listed apart in the source
[36] = target: human IL4Rα expressed on 293F-IL4Rα cells (human) (UniProt P24394); assay: as above; remark: listed apart in the source
[37] = target: human IL4Rα expressed on 293F-IL4Rα cells (human) (UniProt P24394); assay: as above; remark: listed apart in the source
[38] = target: recombinant human IL4Rα-his protein (in house made) (human) (UniProt P24394); assay: competitive ELISA: coated human IL4Rα-his, blocked ligand biotin human IL4
[39] = target: recombinant human IL4Rα-his protein (in house made) (human) (UniProt P24394); assay: as above; remark: listed apart in the source
[40] = target: recombinant human IL4Rα-his protein (in house made) (human) (UniProt P24394); assay: as above; remark: listed apart in the source
[41] = target: recombinant human IL4Rα-his protein (in house made) (human) (UniProt P24394); assay: as above; remark: listed apart in the source
[42] = target: recombinant human IL4Rα-his protein (in house made) (human) (UniProt P24394); assay: as above; remark: listed apart in the source
[43] = target: recombinant human IL4Rα-his protein (in house made) (human) (UniProt P24394); assay: competitive ELISA, blocks biotin-IL4Rα-his binding to coated Benchmark (self-competition)
[44] = target: recombinant human IL4Rα-his protein (in house made) (human) (UniProt P24394); assay: as above; remark: listed apart in the source
[45] = target: recombinant human IL4Rα-his protein (in house made) (human) (UniProt P24394); assay: capture ELISA: antibody captured on anti-IgG Fc plate, biotin human IL4Rα-his detected
[46] = target: recombinant human IL4Rα-his protein (in house made) (human) (UniProt P24394); assay: as above; remark: listed apart in the source
[47] = target: recombinant human IL4Rα-his protein (in house made) (human) (UniProt P24394); assay: as above; remark: listed apart in the source
[48] = target: recombinant human IL4Rα-his protein (in house made) (human) (UniProt P24394); assay: as above; remark: listed apart in the source
[49] = target: recombinant human IL4Rα-his protein (in house made) (human) (UniProt P24394); assay: as above; remark: listed apart in the source
[50] = target: recombinant human IL4Rα-his protein (in house made) (human) (UniProt P24394); assay: as above; remark: listed apart in the source
[51] = target: recombinant human IL4Rα-his protein (in house made) (human) (UniProt P24394); assay: competitive ELISA: antibody mixed with biotin human IL4Rα-his, competitor plate-coated Benchmark
[52] = target: recombinant human IL4Rα-his protein (in house made) (human) (UniProt P24394); assay: as above; remark: listed apart in the source
[53] = target: recombinant human IL4Rα-his protein (in house made) (human) (UniProt P24394); assay: as above; remark: listed apart in the source
[54] = target: recombinant human IL4Rα-his protein (in house made) (human) (UniProt P24394); assay: as above; remark: listed apart in the source

marmoset monkey IL4Rα-his protein (marmoset monkey), sequence (chain, as listed by the source limits assumed): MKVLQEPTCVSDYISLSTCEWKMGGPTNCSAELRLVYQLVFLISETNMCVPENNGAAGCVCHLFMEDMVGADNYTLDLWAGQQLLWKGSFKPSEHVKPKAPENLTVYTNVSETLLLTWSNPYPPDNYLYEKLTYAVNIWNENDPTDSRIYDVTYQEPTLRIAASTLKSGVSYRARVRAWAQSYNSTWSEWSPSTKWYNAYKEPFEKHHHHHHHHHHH
cynomolgus monkey IL4Rα-his protein (cynomolgus monkey), sequence (chain, as listed by the source): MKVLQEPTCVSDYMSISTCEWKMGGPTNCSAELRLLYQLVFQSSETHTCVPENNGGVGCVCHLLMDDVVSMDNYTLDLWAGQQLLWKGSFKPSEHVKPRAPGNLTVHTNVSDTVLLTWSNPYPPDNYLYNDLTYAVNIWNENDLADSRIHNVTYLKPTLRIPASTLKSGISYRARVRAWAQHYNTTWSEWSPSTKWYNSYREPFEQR

- Inhibition on IL4 induced STAT6 phosphorylation (IC50, nM) [1]: 0.28 nM
- Inhibition on IL13 induced STAT6 phosphorylation (IC50, nM) [1]: 0.53 nM
- Inhibition on IL4 induced STAT6 phosphorylation (IC50, nM) [2]: 0.37 nM
- Inhibition on IL13 induced STAT6 phosphorylation (IC50, nM) [2]: 0.48 nM
- Inhibition on IL4 induced STAT6 phosphorylation (IC50, nM) [3]: 0.7 nM
- Inhibition on IL13 induced STAT6 phosphorylation (IC50, nM) [3]: 0.84 nM
- EC50 [4]: 0.05 nM
- EC50 [5]: 0.08 nM
- EC50 [6]: 0.46 nM
- EC50 [7]: 0.4 nM and 0.53 nM
- EC50 [8]: 1.72 nM and 1.84 nM
- EC50 [9]: 0.95 nM
- EC50 [10]: 0.67 nM and 3.34 nM
- EC50 [11]: 0.134 nM
- EC50 [12]: 0.128 nM
- EC50 [13]: 0.254 nM
- EC50 [14]: 0.0816 nM
- EC50 [15]: 0.462 nM
- EC50 [16]: 0.526 nM
- EC50 [17]: 0.397 nM
- EC50 [18]: 1.84 nM
- EC50 [19]: 1.72 nM
- Kd [20]: 0.17 nM
- koff [20]: 3.77e-05 s⁻¹
- kon [20]: 222000 M⁻¹ s⁻¹
- Kd [21]: 0.466 nM
- Kd [22]: 0.444 nM
- koff [22]: 0.00033 s⁻¹
- kon [22]: 742000 M⁻¹ s⁻¹
- Dissociation % [23]: -2.64%
- End (RU) [23]: 70 RU
- Kd [23]: 0.188 nM
- Start (RU) [23]: 71.9 RU
- koff [23]: 6.25e-05 s⁻¹
- kon [23]: 333000 M⁻¹ s⁻¹
- Kd [24]: 0.746 nM
- EC50 [25]: 0.954 nM
- EC50 [26]: 3.33 nM
- EC50 [27]: 0.674 nM
- IC50 [28]: 0.22 nM
- IC50 [29]: 0.42 nM and 0.51 nM
- IC50 [30]: 0.68 nM
- IC50 [31]: 2.06 nM
- IC50 [32]: 1.74 nM and 1.56 nM
- IC50 [33]: 0.302 nM
- IC50 [34]: 0.313 nM
- IC50 [35]: 0.22 nM
- IC50 [36]: 0.505 nM
- IC50 [37]: 0.421 nM
- IC50 [38]: 0.682 nM
- IC50 [39]: 0.269 nM
- IC50 [40]: 2.06 nM
- IC50 [41]: 1.56 nM
- IC50 [42]: 1.74 nM
- IC50 [43]: 0.02 nM
- IC50 [44]: 0.19 nM and 0.13 nM
- EC50 [45]: 0.0485 nM
- EC50 [46]: 0.0284 nM
- EC50 [47]: 0.0228 nM
- EC50 [48]: 0.0479 nM
- EC50 [49]: 0.0505 nM
- EC50 [50]: 0.0517 nM
- IC50 [51]: 0.0235 nM
- IC50 [52]: 0.0158 nM
- IC50 [53]: 0.132 nM
- IC50 [54]: 0.189 nM
B1: anti-IL4Rα benchmark (Dupilumab) (antibody, INN chains, looked up, V domains shown)
VH: EVQLVESGGGLEQPGGSLRLSCAGSGFTFRDYAMTWVRQAPGKGLEWVSSISGSGGNTYYADSVKGRFTISRDNSKNTLYLQMNSLRAEDTAVYYCAKDRLSITIRPRYYGLDVWGQGTTVTVSS
VL: DIVMTQSPLSLPVTPGEPASISCRSSQSLLYSIGYNYLDWYLQKSGQSPQLLIYLGSNRASGVPDRFSGSGSGTDFTLKISRVEAEDVGFYYCMQALQTPYTFGQGTKLEIKR
